Literature values as cited in article PMC3496018.

Key:
[1] = target: Syndecan-4 (Homo sapiens) (UniProt P31431)
LRP6 (Homo sapiens) = LRP6 (Homo sapiens) (UniProt O75581)
UniProt O75581, sequence (O75581 20-1370): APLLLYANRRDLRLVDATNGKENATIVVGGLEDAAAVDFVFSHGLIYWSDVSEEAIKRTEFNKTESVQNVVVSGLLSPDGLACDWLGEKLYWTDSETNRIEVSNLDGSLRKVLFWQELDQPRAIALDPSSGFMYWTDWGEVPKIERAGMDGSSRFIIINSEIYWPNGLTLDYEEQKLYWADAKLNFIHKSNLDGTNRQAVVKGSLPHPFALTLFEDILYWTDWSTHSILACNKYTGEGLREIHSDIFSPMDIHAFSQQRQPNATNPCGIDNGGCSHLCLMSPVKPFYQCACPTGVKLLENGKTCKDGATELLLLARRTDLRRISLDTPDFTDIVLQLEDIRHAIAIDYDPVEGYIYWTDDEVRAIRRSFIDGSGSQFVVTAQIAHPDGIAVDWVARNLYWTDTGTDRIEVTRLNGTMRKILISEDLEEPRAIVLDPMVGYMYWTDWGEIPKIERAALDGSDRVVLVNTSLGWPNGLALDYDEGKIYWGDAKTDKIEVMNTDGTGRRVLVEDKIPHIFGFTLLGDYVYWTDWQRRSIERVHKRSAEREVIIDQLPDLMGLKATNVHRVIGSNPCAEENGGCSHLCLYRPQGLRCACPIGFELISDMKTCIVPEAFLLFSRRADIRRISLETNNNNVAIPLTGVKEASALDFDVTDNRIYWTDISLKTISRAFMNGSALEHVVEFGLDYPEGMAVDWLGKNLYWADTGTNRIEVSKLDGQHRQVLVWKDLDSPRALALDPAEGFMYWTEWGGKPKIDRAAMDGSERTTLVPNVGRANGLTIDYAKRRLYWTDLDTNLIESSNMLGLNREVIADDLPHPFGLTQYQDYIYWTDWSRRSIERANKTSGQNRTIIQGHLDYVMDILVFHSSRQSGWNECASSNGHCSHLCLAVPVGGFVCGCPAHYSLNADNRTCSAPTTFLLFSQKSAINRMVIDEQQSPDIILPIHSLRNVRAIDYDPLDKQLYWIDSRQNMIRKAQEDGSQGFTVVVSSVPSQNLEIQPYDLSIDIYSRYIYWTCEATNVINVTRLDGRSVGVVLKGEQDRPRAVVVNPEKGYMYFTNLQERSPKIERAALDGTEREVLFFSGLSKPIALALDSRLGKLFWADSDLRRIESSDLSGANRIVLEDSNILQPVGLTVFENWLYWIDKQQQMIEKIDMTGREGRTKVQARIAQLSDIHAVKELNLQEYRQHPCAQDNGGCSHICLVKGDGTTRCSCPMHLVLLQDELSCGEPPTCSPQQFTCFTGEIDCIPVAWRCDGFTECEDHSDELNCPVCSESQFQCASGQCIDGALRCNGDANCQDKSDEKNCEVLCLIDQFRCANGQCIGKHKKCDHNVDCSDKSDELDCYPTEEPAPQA

UniProt P31431, sequence (P31431 19-145): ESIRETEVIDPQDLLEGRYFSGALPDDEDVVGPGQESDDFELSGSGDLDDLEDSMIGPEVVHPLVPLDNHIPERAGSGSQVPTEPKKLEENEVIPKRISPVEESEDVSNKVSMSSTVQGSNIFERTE

Row | Kd [1] | Kd (LRP6 (Homo sapiens)) | Substance
1 | 0.88 nM |  | RSPO3 (from UniProt Q9BXY4)
2 |  | 1.2 nM | RSPO1 (from UniProt Q2MKA7)
